# Laboratory results as given in article PMC10772564, “Structural and Biochemical Analysis of 3-Dehydroquinate Dehydratase from Corynebacterium glutamicum” (Journal of Microbiology and Biotechnology, 2023).
# Residue numbers refer to the chain shown, from its start. Names may count otherwise.
# T1: CgDHQD (Corynebacterium glutamicum, UniProt O52377)
# T1 construct: gene aroQ; full length in pET30a (NdeI/XhoI), C-terminal 6xHis tag not reported cut, E. coli BL21(DE3); by primers starts MPGKILLLN, ends DILANLKK before tag
# T1 sequence (O52377 1-145): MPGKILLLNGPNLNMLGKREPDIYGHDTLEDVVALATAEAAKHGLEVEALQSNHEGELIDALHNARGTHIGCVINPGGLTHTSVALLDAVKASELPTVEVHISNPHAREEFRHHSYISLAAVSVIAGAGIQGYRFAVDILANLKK
# B1: 3-dehydroquinate dehydratase from Corynebacterium glutamicum, wild type (enzyme, Corynebacterium glutamicum ATCC 13032, UniProt O52377 1-145, looked up)
# chain: T1 sequence (O52377 1-145)
# notes: 3-dehydroquinate dehydratase (type II DHQD, EC 4.2.1.10) of Corynebacterium glutamicum ATCC 13032; The XhoI site of pET30a probably adds LE before the His tag (surmised); also called CgDHQD; CgDHQD^WT; source: E. coli BL21 (DE3)-T1R, purified (Ni-NTA, HiTrap Q ion exchange, size exclusion); copies: 12
# B2: CgDHQD (Corynebacterium glutamicum ATCC 13032; S103T) (protein)
# chain: T1 sequence (O52377 1-145) with S103T
# notes: full length in pET30a (NdeI/XhoI), C-terminal 6xHis tag not reported cut, E. coli BL21(DE3); by primers starts MPGKILLLN, ends DILANLKK before tag
# B3: 3-dehydroquinate dehydratase from Corynebacterium glutamicum, R19A variant (enzyme, Corynebacterium glutamicum ATCC 13032, UniProt O52377 1-145, looked up)
# chain: T1 sequence (O52377 1-145) with R19A
# notes: also called CgDHQD^R19A; source: E. coli BL21 (DE3)-T1R, purified in the same manner as wild type (Ni-NTA, ion exchange, size exclusion)
# How the values were obtained:
# CgDHQD [1] = biological target: T1, CgDHQD; test: X-ray crystal structure, […] A, co-crystallised; details: active site, two binding modes; 0.2 M ammonium citrate tribasic pH 7.0 in the crystallisation solution
# CgDHQD [2] = biological target: T2, CgDHQD (Corynebacterium glutamicum, UniProt O52377, R19A); test: X-ray crystal structure, […] A, crystal soaked with […] DHQ; assay type: binding; details: active site; inactive variant; glycerol occupies the R19 side-chain space; pH 5.5
# T2 construct: gene aroQ; full length in pET30a (NdeI/XhoI), C-terminal 6xHis tag not reported cut, E. coli BL21(DE3); by primers starts MPGKILLLN, ends DILANLKK before tag
# T2 sequence (O52377 whole entry R19A): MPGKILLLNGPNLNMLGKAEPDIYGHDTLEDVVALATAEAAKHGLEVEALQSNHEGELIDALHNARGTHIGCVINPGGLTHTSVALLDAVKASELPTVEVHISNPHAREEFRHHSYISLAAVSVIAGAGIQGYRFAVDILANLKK
# [3] = biological target: the molecule itself; test: SEC; analytical size-exclusion chromatography, Superdex 200 Increase 10/300 GL, 150 mM NaCl, 40 mM Tris-HCl pH 8.0, 1 ml of 1 mg/ml protein, 277 K; calibrated with aldolase, ovalbumin, ribonuclease A, aprotinin
# purified protein = substrate: O=C1C[C@@](O)(C(=O)O)C[C@@H](O)[C@@H]1O; test: purified protein; assay type: biochemical, Corynebacterium glutamicum; details: 50 mM Tris-HCl pH 8.0, room temperature, 20 nM enzyme, 50-2,000 uM substrate
# [4] = biological target: the molecule itself; test: crystal structure; CgDHQD R19A, 0.8 M lithium sulfate, 0.4 M ammonium sulfate, 0.1 M sodium citrate pH 5.5, soaked with 100 mM DHQ; space group C2221, six molecules per asymmetric unit, 2.0 Å
molecule,measurement,setting,value
O=C(O)CC(O)(CC(=O)O)C(=O)O [citrate],"X-ray crystal structure, 1.80 A, co-crystallised",CgDHQD [1],CgDHQD structure in complex with the citrate ion exhibits two different binding modes
"O=C1C[C@@](O)(C(=O)O)C[C@@H](O)[C@@H]1O [DHQ, 3-dehydroquinic acid]","X-ray crystal structure, 2.00 A, crystal soaked with 100 mM DHQ",CgDHQD [2],The DHQ-bound structure of CgDHQD explained the substrate-binding mode of the enzyme
B1,stoichiometry N,[3],12
same,Km,purified protein,348.20 µM
same,kcat,purified protein,150.19 s⁻¹
B2,Km,purified protein,745.3 µM
same,kcat,purified protein,199.67 s⁻¹
B3,binding result,[4],binds
